Source: publication PMC3064786

Molecular target: HMGA1a-FLAG (UniProt P17096 1-107)
Experiment: EMSA

Chain of HMGA1a-FLAG (P17096 whole entry): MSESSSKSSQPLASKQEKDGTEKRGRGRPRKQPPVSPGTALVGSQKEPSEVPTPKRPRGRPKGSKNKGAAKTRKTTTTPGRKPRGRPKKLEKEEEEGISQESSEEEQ

B1: IL2-Rα promoter fragment (-136 to -76) (dsDNA)
DNA 1: ACCGCAAACTATATTGTCATCAAAAAAAAAAAAAAAAAAACACTTCCTATATTTGAGATG
DNA 2: CATCTCAAATATAGGAAGTGTTTTTTTTTTTTTTTTTTTGATGACAATATAGTTTGCGGT
Does B1 bind?
Result: binds
